Experimental data as given in publication PMC3282769, “New Insight into the Transcarbamylase Family: The Structure of Putrescine Transcarbamylase, a Key Catalyst for Fermentative Utilization of Agmatine” (PLoS ONE, 2012).

Tests used:
NCCCCN [1] = experiment: purified protein; conditions: 10 mM carbamylphosphate, 50 mM Tris-HCl pH 7, 37°C, 230YGLY233 replaced by VSMG
NCCCCN [2] = experiment: carbamylputrescine production, colorimetric (Archibald reaction); hyperbolic fit; assay type: biochemical, Enterococcus faecalis; conditions: 10 mM carbamylphosphate, 50 mM Tris-HCl pH 7, 37°C

Substance	Km (NCCCCN [1]) [mM]	Km (NCCCCN [2]) [mM]
PTC (putrescine transcarbamylase) (Enterococcus faecalis V583; G231S/L232M/Y230V/Y233G)	32.9 ± 8.8	
PTC (putrescine transcarbamylase) (Enterococcus faecalis V583)		1.41 ± 0.22
